Experimental data published in paper PMC8307404, “Crystal Structure-Guided Design of Bisubstrate Inhibitors and Photoluminescent Probes for Protein Kinases of the PIM Family” (Molecules, 2021).
Square brackets hold non-standard residues; d marks the D form. Peptide text beside a SMILES is read from it. * marks the point of attachment. X3 = O=C(CCCCCNCc1nc2c(sc3cc(Br)cnc32)c(=O)[nH]1)*

How the values were obtained:
Assay in all cases: Kinase profiling (radiometric filter-binding)
Assay type in all cases: biochemical
[1] = molecular target: CAMK1 (Homo sapiens, UniProt Q14012); conditions: CAMK1, 1 µM inhibitor; read-out: Residual activity, %
Sequence of CAMK1 (Q14012 whole entry): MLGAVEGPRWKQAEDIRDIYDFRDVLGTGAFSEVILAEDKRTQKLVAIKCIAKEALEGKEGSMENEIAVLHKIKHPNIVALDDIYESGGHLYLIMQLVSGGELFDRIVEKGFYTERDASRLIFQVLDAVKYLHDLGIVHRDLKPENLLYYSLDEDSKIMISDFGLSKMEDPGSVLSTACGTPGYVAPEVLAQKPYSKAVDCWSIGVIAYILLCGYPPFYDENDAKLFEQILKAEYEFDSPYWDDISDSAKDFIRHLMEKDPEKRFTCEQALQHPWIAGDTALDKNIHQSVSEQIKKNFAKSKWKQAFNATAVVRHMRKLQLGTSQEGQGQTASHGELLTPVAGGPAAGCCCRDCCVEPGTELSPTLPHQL
Method: (§1) Kinase selectivity profiling was performed using the commercial service provided by the MRC PPU International Centre for Kinase Profiling (Dundee, UK) using a radiometric filter-binding assay. Kinases used for analysis were of human origin. The ATP concentration applied for inhibition measurements was at or below the ATP KM value of the particular PK. ARC-3125 and ARC-3126 were screened against 139 PKs, whereas compounds 1, 2, and 8 were screened against 140 PKs. The final total concentration of inhibitors in the selectivity panel was 1 µM. Residual activities were expressed as the percentage of retained activity compared to the control without inhibitor.

[2] = molecular target: DYRK1A (Homo sapiens, UniProt Q13627); conditions: 1 µM inhibitor, read-out: Residual activity, %
Method: as §1

[3] = molecular target: PKBβ (Homo sapiens, UniProt P31751); conditions: PKB, second of two PKB lines (Greek letter lost; PKBβ), 1 µM inhibitor; read-out: Residual activity, %
Sequence of PKBβ (P31751 whole entry): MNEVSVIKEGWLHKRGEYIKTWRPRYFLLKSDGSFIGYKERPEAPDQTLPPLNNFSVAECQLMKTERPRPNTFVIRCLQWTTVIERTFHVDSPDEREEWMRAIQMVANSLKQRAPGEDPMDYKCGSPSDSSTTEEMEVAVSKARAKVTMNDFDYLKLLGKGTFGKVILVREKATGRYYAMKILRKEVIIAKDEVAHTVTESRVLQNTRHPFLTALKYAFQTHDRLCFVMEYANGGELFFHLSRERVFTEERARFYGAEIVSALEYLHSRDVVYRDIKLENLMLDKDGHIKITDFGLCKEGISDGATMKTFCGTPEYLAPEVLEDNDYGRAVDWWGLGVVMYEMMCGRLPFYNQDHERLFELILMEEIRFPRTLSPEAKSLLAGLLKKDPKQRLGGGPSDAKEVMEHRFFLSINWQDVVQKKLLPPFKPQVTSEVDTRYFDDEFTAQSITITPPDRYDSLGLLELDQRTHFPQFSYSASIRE
Method: as §1

[4] = molecular target: RSK1 (Homo sapiens, UniProt Q15418); conditions: RSK1, 1 µM inhibitor; read-out: Residual activity, %
Sequence of RSK1 (Q15418 whole entry): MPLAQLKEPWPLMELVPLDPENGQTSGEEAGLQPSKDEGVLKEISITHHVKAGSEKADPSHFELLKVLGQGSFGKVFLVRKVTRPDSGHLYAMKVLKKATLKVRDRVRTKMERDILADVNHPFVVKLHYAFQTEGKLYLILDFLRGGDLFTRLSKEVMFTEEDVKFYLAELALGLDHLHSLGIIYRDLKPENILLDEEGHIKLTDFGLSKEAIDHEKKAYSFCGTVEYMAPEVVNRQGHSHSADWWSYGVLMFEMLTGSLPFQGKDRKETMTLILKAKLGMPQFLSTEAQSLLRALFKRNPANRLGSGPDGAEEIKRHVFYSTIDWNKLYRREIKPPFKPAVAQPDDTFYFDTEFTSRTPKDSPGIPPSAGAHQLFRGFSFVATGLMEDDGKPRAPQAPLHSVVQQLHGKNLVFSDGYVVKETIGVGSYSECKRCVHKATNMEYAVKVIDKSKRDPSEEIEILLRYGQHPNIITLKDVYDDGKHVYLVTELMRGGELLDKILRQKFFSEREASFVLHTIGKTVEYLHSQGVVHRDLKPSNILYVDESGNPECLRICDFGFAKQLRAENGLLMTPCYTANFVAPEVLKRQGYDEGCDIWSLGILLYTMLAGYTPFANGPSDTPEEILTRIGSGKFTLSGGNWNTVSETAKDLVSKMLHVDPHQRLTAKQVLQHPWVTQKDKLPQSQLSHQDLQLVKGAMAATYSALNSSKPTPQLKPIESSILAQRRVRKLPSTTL
Method: as §1

[5] = molecular target: T1, TAO1 (Homo sapiens, UniProt Q7L7X3); conditions: TAO1, 1 µM inhibitor; read-out: Residual activity, %
T1 sequence (Q7L7X3 1-1001): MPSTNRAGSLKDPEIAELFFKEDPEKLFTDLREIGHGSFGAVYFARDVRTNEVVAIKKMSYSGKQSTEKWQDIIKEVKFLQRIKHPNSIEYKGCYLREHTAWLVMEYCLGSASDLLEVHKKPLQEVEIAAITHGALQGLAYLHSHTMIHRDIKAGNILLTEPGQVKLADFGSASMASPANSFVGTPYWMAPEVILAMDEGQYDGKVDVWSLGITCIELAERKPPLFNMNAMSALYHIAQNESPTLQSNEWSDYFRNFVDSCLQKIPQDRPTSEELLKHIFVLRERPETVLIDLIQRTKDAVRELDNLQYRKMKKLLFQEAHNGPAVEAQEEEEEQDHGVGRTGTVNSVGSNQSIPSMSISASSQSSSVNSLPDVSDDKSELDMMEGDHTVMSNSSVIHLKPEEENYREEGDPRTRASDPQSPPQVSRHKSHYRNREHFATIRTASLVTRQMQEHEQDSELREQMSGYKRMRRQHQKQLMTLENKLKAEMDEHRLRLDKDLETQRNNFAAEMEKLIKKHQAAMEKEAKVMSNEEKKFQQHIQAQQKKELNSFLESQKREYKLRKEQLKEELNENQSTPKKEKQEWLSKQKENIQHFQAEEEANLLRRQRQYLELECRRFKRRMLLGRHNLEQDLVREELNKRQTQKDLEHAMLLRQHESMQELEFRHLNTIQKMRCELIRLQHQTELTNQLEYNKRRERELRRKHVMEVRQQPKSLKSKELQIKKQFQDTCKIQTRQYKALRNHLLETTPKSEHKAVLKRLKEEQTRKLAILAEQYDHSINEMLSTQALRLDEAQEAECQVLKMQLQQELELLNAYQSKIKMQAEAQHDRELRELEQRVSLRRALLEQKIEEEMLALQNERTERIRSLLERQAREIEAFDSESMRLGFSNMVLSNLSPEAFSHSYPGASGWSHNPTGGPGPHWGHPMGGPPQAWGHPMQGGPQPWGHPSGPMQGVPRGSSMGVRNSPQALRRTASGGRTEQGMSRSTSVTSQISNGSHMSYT
Method: as §1

[6] = molecular target: T2, TBK1 (Homo sapiens, UniProt Q9UHD2); conditions: TBK1, 1 µM inhibitor; read-out: Residual activity, %
T2 sequence (Q9UHD2 1-729): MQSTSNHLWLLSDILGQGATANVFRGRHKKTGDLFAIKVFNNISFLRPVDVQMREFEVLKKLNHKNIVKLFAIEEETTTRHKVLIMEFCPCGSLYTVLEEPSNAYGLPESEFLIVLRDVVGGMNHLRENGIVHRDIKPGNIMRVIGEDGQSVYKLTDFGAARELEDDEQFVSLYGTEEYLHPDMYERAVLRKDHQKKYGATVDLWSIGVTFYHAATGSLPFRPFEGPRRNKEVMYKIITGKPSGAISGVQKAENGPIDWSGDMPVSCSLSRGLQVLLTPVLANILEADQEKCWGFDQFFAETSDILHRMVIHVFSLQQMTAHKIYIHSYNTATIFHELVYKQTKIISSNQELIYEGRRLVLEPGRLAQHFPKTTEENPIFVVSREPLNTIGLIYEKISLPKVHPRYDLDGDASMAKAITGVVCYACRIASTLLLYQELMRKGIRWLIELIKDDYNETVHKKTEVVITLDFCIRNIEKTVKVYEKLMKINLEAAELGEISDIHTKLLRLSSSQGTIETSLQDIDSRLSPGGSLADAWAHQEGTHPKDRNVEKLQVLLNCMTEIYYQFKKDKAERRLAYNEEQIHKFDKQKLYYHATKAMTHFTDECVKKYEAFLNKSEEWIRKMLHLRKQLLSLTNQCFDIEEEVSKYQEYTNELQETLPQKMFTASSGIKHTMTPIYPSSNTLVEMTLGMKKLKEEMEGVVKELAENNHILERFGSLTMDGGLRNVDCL
Method: as §1

Row | SMILES | remaining activity at 1 µM [1] [%] | remaining activity at 1 µM [2] [%] | remaining activity at 1 µM [3] [%] | remaining activity at 1 µM [4] [%] | remaining activity at 1 µM [5] [%] | remaining activity at 1 µM [6] [%]
1 | N=C(N)NCCC[C@@H](NC(=O)CCCCCNC(=O)Cn1cnc2c(I)c(I)c(I)c(I)c21)C(=O)N[C@H](CCCNC(=N)N)C(=O)N[C@H](CCCNC(=N)N)C(=O)N[C@H](CCCNC(=N)N)C(=O)N[C@H](CCCNC(=N)N)C(=O)N[C@H](CCCNC(=N)N)C(=O)N[C@H](CCCCN)C(N)=O [ARC-3125, TIBI-CH2-C(=O)-Ahx-(D-Arg)6-D-Lys-NH2] | 3 ± 11 | 28 ± 7 | 1 ± 1 | 19 ± 1 | 32 ± 6 | 68 ± 3
2 | N=C(N)NCCC[C@@H](NC(=O)CCCCCNCc1nc2c(sc3cc(Br)cnc32)c(=O)[nH]1)C(=O)N[C@H](CCCNC(=N)N)C(=O)N[C@H](CCCNC(=N)N)C(=O)N[C@H](CCCNC(=N)N)C(=O)N[C@H](CCCNC(=N)N)C(=O)N[C@H](CCCNC(=N)N)C(=O)N[C@H](CCCCN)C(N)=O [ARC-3126, BPTP-Ahx-(D-Arg)6-D-Lys-NH2] (X3-[dR][dR][dR][dR][dR][dR][dK]-NH2) | 55 ± 9 | 99 ± 6 | 86 ± 10 | 82 ± 10 | 95 ± 3 | 105 ± 12
3 | N=C(N)NCCC[C@@H](NC(=O)CNC(=O)[C@@H](CCCNC(=N)N)NC(=O)[C@@H](CCCNC(=N)N)NC(=O)CCCCCCCNCc1nc2c(sc3cc(Br)cnc32)c(=O)[nH]1)C(=O)N[C@H](CCCCN)C(N)=O [Compound 1, BPTP-Aoc-(D-Arg)2-Gly-D-Arg-D-Lys-NH2] | 81 ± 18 | 74 | 115 ± 26 | 95 | 106 ± 10 | 113 ± 29
4 | N=C(N)NCCC[C@@H](NC(=O)CNC(=O)[C@@H](CCCNC(=N)N)NC(=O)[C@@H](CCCNC(=N)N)NC(=O)CCCCCCCNCc1nc2c(sc3ccc(Br)cc32)c(=O)[nH]1)C(=O)N[C@H](CCCCN)C(N)=O [Compound 2, BBTP-Aoc-(D-Arg)2-Gly-D-Arg-D-Lys-NH2] | 81 | 5 | 101 | 31 | 49 | 113
5 | N=C(N)NCCC[C@@H](NC(=O)CNC(=O)[C@@H](CCCNC(=N)N)NC(=O)[C@@H](CCCNC(=N)N)NC(=O)Cn1cc(CNCc2nc3c(sc4ccc(Br)cc43)c(=O)[nH]2)nn1)C(=O)N[C@H](CCCCN)C(N)=O [Compound 3, BBTP-Amt-(D-Arg)2-Gly-D-Arg-D-Lys-NH2] | 49 ± 11 | 37 ± 15 | 54 ± 6 | 74 ± 12 | 80 ± 4 | 46 ± 4
6 | CN(C)c1ccc2c(c1)Oc1cc(N(C)C)ccc1C21OC(=O)c2cc(C(=O)NCCCC[C@@H](NC(=O)[C@@H](CCCNC(=N)N)NC(=O)CNC(=O)[C@@H](CCCNC(=N)N)NC(=O)[C@@H](CCCNC(=N)N)NC(=O)CCCCc3cn(Cc4nc5c(sc6ccc(Br)cc65)c(=O)[nH]4)nn3)C(N)=O)ccc21 [Compound 8, BBTP-Tap-(D-Arg)2-Gly-D-Arg-[D-Lys(5-TAMRA)]-NH2] | 49 | 37 | 54 | 74 | 80 | 46
